Measured values: US20180094059A1 (published 2018)

Tests used:
TRAIL-R2-Fc = TRAIL-R2-Fc (human, UniProt O14763 56-210); experiment: ELISA
Colo 205 = experiment: flow cytometry; Colo205 cells
HT1080 = experiment: flow cytometry; HT1080 cells

Row | EC50 (TRAIL-R2-Fc) | EC50 (Colo 205) | EC50 (HT1080) | Binder
1 | 5.25 nM | 4.1 nM | – | scTRAIL3-FAVGGAA (ligand) LDDYKDDDDKEFGGAAAHITGTRGRSNTLSSPNSKNEKALGRKINSWESSRSGHSFLSNLHLRNGELVIHEKGFYYIYSQTYFRFQEEIKENTKNDKQMVQYIYKYTSYPDPILLMKSARNSCWSKDAEYGLYSIYQGGIFELKENDRIFVSVTNEHLIDMDHEASFFGAFAVGGAAAHITGTRGRSNTLSSPNSKNEKALGRKINSWESSRSGHSFLSNLHLRNGELVIHEKGFYYIYSQTYFRFQEEIKENTKNDKQMVQYIYKYTSYPDPILLMKSARNSCWSKDAEYGLYSIYQGGIFELKENDRIFVSVTNEHLIDMDHEASFFGAFAVGGAAAHITGTRGRSNTLSSPNSKNEKALGRKINSWESSRSGHSFLSNLHLRNGELVIHEKGFYYIYSQTYFRFQEEIKENTKNDKQMVQYIYKYTSYPDPILLMKSARNSCWSKDAEYGLYSIYQGGIFELKENDRIFVSVTNEHLIDMDHEASFFGAFAVG
2 | – | 4.2 nM | – | scTRAIL3-FLVGGAA (ligand) LDDYKDDDDKEFGGAAAHITGTRGRSNTLSSPNSKNEKALGRKINSWESSRSGHSFLSNLHLRNGELVIHEKGFYYIYSQTYFRFQEEIKENTKNDKQMVQYIYKYTSYPDPILLMKSARNSCWSKDAEYGLYSIYQGGIFELKENDRIFVSVTNEHLIDMDHEASFFGAFLVGGAAAHITGTRGRSNTLSSPNSKNEKALGRKINSWESSRSGHSFLSNLHLRNGELVIHEKGFYYIYSQTYFRFQEEIKENTKNDKQMVQYIYKYTSYPDPILLMKSARNSCWSKDAEYGLYSIYQGGIFELKENDRIFVSVTNEHLIDMDHEASFFGAFLVGGAAAHITGTRGRSNTLSSPNSKNEKALGRKINSWESSRSGHSFLSNLHLRNGELVIHEKGFYYIYSQTYFRFQEEIKENTKNDKQMVQYIYKYTSYPDPILLMKSARNSCWSKDAEYGLYSIYQGGIFELKENDRIFVSVTNEHLIDMDHEASFFGAFLVG
3 | – | 12.7 nM | – | scTRAIL3-FLVGGVA (ligand) LDDYKDDDDKEFGGVAAHITGTRGRSNTLSSPNSKNEKALGRKINSWESSRSGHSFLSNLHLRNGELVIHEKGFYYIYSQTYFRFQEEIKENTKNDKQMVQYIYKYTSYPDPILLMKSARNSCWSKDAEYGLYSIYQGGIFELKENDRIFVSVTNEHLIDMDHEASFFGAFLVGGVAAHITGTRGRSNTLSSPNSKNEKALGRKINSWESSRSGHSFLSNLHLRNGELVIHEKGFYYIYSQTYFRFQEEIKENTKNDKQMVQYIYKYTSYPDPILLMKSARNSCWSKDAEYGLYSIYQGGIFELKENDRIFVSVTNEHLIDMDHEASFFGAFLVGGVAAHITGTRGRSNTLSSPNSKNEKALGRKINSWESSRSGHSFLSNLHLRNGELVIHEKGFYYIYSQTYFRFQEEIKENTKNDKQMVQYIYKYTSYPDPILLMKSARNSCWSKDAEYGLYSIYQGGIFELKENDRIFVSVTNEHLIDMDHEASFFGAFLVG
4 | – | – | 3 nM | Db10-Glyco-scTRAIL3-FAVSGAA (other, glycosylated connecting peptide) LEASDYKDDDDKGAEVQLVESGGGLVQPGGSLRLSCAASGFSLTNYGVHWVRQAPGKGLEWLGVIWSGGNTDYNTPFTSRFTISRDNSKNTLYLQMNSLRAEDTAVYYCARALTYYDYEFAYWGQGTTVTVSSGGGGSGGGGSDIQLTQSPSFLSASVGDRVTITCRASQSIGTNIHWYQQKPGKAPKLLIKYASESISGVPSRFSGSGSGTEFTLTISSLQPEDFATYYCQQNNNWPTTFGAGTKLEIKRAAAGNGTSNGTSEFGGAAAHITGTRGRSNTLSSPNSKNEKALGRKINSWESSRSGHSFLSNLHLRNGELVIHEKGFYYIYSQTYFRFQEEIKENTKNDKQMVQYIYKYTSYPDPILLMKSARNSCWSKDAEYGLYSIYQGGIFELKENDRIFVSVTNEHLIDMDHEASFFGAFAVSGAAAHITGTRGRSNTLSSPNSKNEKALGRKINSWESSRSGHSFLSNLHLRNGELVIHEKGFYYIYSQTYFRFQEEIKENTKNDKQMVQYIYKYTSYPDPILLMKSARNSCWSKDAEYGLYSIYQGGIFELKENDRIFVSVTNEHLIDMDHEASFFGAFAVSGAAAHITGTRGRSNTLSSPNSKNEKALGRKINSWESSRSGHSFLSNLHLRNGELVIHEKGFYYIYSQTYFRFQEEIKENTKNDKQMVQYIYKYTSYPDPILLMKSARNSCWSKDAEYGLYSIYQGGIFELKENDRIFVSVTNEHLIDMDHEASFFGAFAVS
